According to PMC3057930 (Proteins, 2010):
Read-outs that look alike come from different tables or passages of the source. No end group written: not given here. *: point of attachment. FITC = O=C1OC2(c3ccc(O)cc3Oc3cc(O)ccc32)c2ccc(NC(=S)*)cc21

Legend:
Test in all cases: fluorescence polarisation
[1] = biological target: T1, Paramecium calmodulin C-domain fragment (CaM_(76-148)) (Paramecium, UniProt P07463 77-149)
[2] = biological target: T2, Paramecium calmodulin N-domain fragment (CaM_(1-80)) (Paramecium, UniProt P07463 2-81)
[3] = biological target: T3, Paramecium calmodulin, full-length (CaM_(1-148)) (Paramecium, UniProt P07463 1-149)
[4] = biological target: T1, Paramecium calmodulin C-domain fragment …; remark: listed apart in the source
[5] = biological target: T2, Paramecium calmodulin N-domain fragment …; remark: listed apart in the source
[6] = biological target: T3, Paramecium calmodulin, full-length …; remark: listed apart in the source

{FITC}-ARKEIIRNKIRAIGKMARVFSVLR showed a Kd [1] of 44.1 µM, a Kd [2] of 600 µM and a Kd [3] of 25 µM. It also gave a Kd [4] of 0.96 µM, a Kd [5] of 7.06 µM and a Kd [6] of no more than 0.001 µM.
